± gives the standard error. Fewer inactive variants are shown than the library holds.
B1: glmS ribozyme (parent)
chain: AUAAAAGCGCCAGAACUACAGAAAUGUAGUUGACGAGGAGGAGGUUUAUCGAAUUUUCGGCGGAUGCCUCCAAA

Tests used:
Details in all cases: with glucosamine-6-phosphate
glucosamine-6-phosphate [1] = variants of: B1; experiment: self-cleavage kobs at 640 uM GlcN6P; higher = faster cleavage; RNA array
Procedure, shortened: (§1)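 Glucosamine-6-phosphate (40 μM to 10 mM) in HEPES/KCl/Mg(OAc)2 buffer was flowed over sequenced MiSeq chips, and tiles were imaged over ~14 h. Barcoded ribozyme variants there had been transcribed in situ by E. coli RNA polymerase and were tracked through a hybridised Cy3 probe at 37 °C. One- or two-exponential decay fits to per-tile medians, normalised to baseline and to non-cleaving reference variants, gave kobs. kcat and KM came from weighted Michaelis–Menten fits across concentrations.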

glucosamine-6-phosphate [2] = variants of: B1; experiment: self-cleavage kobs at 2500 uM GlcN6P; higher = faster cleavage; RNA array
Procedure, shortened: as §1

glucosamine-6-phosphate [3] = variants of: B1; experiment: self-cleavage kobs at 10000 uM GlcN6P; higher = faster cleavage; RNA array
Procedure, shortened: as §1

Variant | self-cleavage kobs at 640 uM GlcN6P (glucosamine-6-phosphate [1]) [s⁻¹] | self-cleavage kobs at 2500 uM GlcN6P (glucosamine-6-phosphate [2]) [s⁻¹] | self-cleavage kobs at 10000 uM GlcN6P (glucosamine-6-phosphate [3]) [s⁻¹]
C10G C67G C68U | 0.0001 ± 4.2e-05 | 7.32e-05 ± 3e-05 | 2.77e-05 ± 1.3e-05
U46G U55C C67A | 8.32e-05 ± 1.9e-05 | 6.57e-05 ± 1.5e-05 | –
A53U C67G C68G | 4.57e-05 ± 2.1e-05 | – | –
G9U U30C U57A | < 1e-05 | < 1e-05 | –
A6U A12G A14U | < 1e-05 | – | –
A14U A36C G37A G38A | < 1e-05 | – | –
C10U A36G C58U | < 1e-05 | – | –
G29U A36G A53U G62A | < 1e-05 | < 1e-05 | –
C50U U57A C68A U69G C71G | 8.81e-05 ± 3.4e-05 | – | –
U31G G32A U54C | 0.000129 ± 3.8e-05 | 0.000702 ± 0.00023 | –
A12G G29A U30A U45G G62A C71U | < 1e-05 | < 1e-05 | –
G35U C67G C68G | 6.14e-05 ± 2.2e-05 | – | –
G38C U49A | < 1e-05 | < 1e-05 | < 1e-05
G9C C67A C71U | < 1e-05 | < 1e-05 | –
A14U G38A A53G G63U | < 1e-05 | – | –
C16U A53U G66C | 9.89e-05 ± 2.1e-05 | 0.000105 ± 2.8e-05 | 0.000199 ± 5.3e-05
G29U C67U C70U | 4.16e-05 ± 1.2e-05 | 9.35e-05 ± 1.8e-05 | –
A33C U45C U56G G62A U65C | < 1e-05 | – | –
G13A G44U | < 1e-05 | < 1e-05 | –
G62A G63C C70A C71U | 5.14e-05 ± 2.3e-05 | – | –
A14U A36U G38C G62A | < 1e-05 | – | –
A15G U45C C71U | 0.000376 ± 0.00017 | 0.000625 ± 0.0003 | –
U45G U47G C71U | 0.000978 ± 0.00031 | – | –

Variant | self-cleavage kobs at 640 uM GlcN6P (glucosamine-6-phosphate [1]) [s⁻¹] | self-cleavage kobs at 2500 uM GlcN6P (glucosamine-6-phosphate [2]) [s⁻¹] | self-cleavage kobs at 10000 uM GlcN6P (glucosamine-6-phosphate [3]) [s⁻¹]
A15G C58A C68G | 0.000265 ± 8.6e-05 | – | –
G32C U56A | 3.99e-05 ± 1.8e-05 | 2.05e-05 ± 9.8e-06 | 5.18e-05 ± 7.3e-06
G13C G51A U69G | 4.99e-05 ± 1.8e-05 | – | –
A6G C50U C61U | < 1e-05 | < 1e-05 | –
G35U C61G | < 1e-05 | – | < 1e-05
A14G A39U G41U G51A G59A | < 1e-05 | – | –
G44U U47G A52G A64G | < 1e-05 | – | –
G44U C58A G59U | < 1e-05 | < 1e-05 | –
G41C U47A U56C | < 1e-05 | – | –
A12C G38A A52U | < 1e-05 | – | –
U30A A39C U47C | 4.7e-05 ± 1.3e-05 | – | –
G32C G35A A36G | < 1e-05 | – | –
A12C A42U C68U | 5.31e-05 ± 1.5e-05 | 0.000111 ± 2.6e-05 | –
G9U U65C | < 1e-05 | – | < 1e-05
G7U G43U U45A C58A | < 1e-05 | < 1e-05 | –
G35U U47G A52G C70A | 9.25e-05 ± 3.2e-05 | – | –
C10G U30C G38U | < 1e-05 | – | –
G9U A14U C16A G32U A36G | < 1e-05 | – | –
A6G G62U C71G | < 1e-05 | – | –
C8G A33C U45C U56C G59C | < 1e-05 | < 1e-05 | –
C10G U55A U57A | < 1e-05 | – | –
U54A G66A C67A | 0.00151 ± 0.00064 | 0.00163 ± 0.00044 | –
A6U C8A C50U | < 1e-05 | – | –

Variant | self-cleavage kobs at 640 uM GlcN6P (glucosamine-6-phosphate [1]) [s⁻¹] | self-cleavage kobs at 2500 uM GlcN6P (glucosamine-6-phosphate [2]) [s⁻¹] | self-cleavage kobs at 10000 uM GlcN6P (glucosamine-6-phosphate [3]) [s⁻¹]
A36G G38U C68G | 9.46e-05 ± 3.2e-05 | – | 3.1e-05 ± 1.5e-05
A14G U49A G63U | < 1e-05 | – | –
A14G C16G A39U A52C | < 1e-05 | – | –
A14U G40A A53C C71A | 5.44e-05 ± 1.1e-05 | 0.000153 ± 2.6e-05 | –
A48C U49G C50A | < 1e-05 | – | –
G37A A42U G44C G59A | < 1e-05 | < 1e-05 | –
G32A G37U A48C G66C | < 1e-05 | – | –
C11A G38A G43U U54G | < 1e-05 | – | –
C11A G35U C71G | < 1e-05 | < 1e-05 | –
G9A C10U A42G A53U | < 1e-05 | < 1e-05 | –
G32U C34G U69G | 8.49e-05 ± 2.2e-05 | – | –
U45G U49G | 0.000102 ± 1.6e-05 | 0.000422 ± 8.4e-05 | –
G40C G51C G63C C71A | < 1e-05 | < 1e-05 | –
G43U C50G C70G | < 1e-05 | – | –
U31A G66U C70U | 0.00031 ± 6.9e-05 | 0.000329 ± 6.7e-05 | –
A6G C8U G37C U54C U69C | < 1e-05 | < 1e-05 | –
U30A U45G | 0.000279 ± 6.7e-05 | 0.000752 ± 0.00013 | –
A15G G44U A52C U69C | < 1e-05 | – | –
C10A A15C U45C | < 1e-05 | – | –
A36G A39G G40U | < 1e-05 | < 1e-05 | < 1e-05
A15U C16G U46C | < 1e-05 | – | –
C16A G38U C67G | 0.0005 ± 0.00011 | – | –
U30G G32A G38C U57C U65C | < 1e-05 | < 1e-05 | –

From the supplement of paper PMC7125110
